Source: patent publication US20260056186A1 (JIANGSU HENGRUI PHARMACEUTICALS, published 2026)

B1: B637302 (other)
heavy: EVQLVQSGAEVKKPGESLKISCKGSGYIFTNYWIAWVRQMPGKGLESMGIIYPGDSDIRYSPSFQGQVTISADKSITTAYLQWSSLKASDTAMYYCARHDIEGFDYWGRGTLVTVSSASTKGPSVFPLAPSSKSTSGGTAALGCLVKDYFPEPVTVSWNSGALTSGVHTFPAVLQSSGLYSLSSVVTVPSSSLGTQTYICNVNHKPSNTKVDKRVEPKSCDKTHTCPPCPAPEFEGGPSVFLFPPKPKDTLMISRTPEVTCVVVDVSHEDPEVKFNWYVDGVEVHNAKTKPREEQYNSTYRVVSVLTVLHQDWLNGKEYKCKVSNKALPASIEKTISKAKGQPREPQVYTLPPSRDELTKNQVSLTCLVKGFYPSDIAVEWESNGQPENNYKTTPPVLDSDGSFFLYSKLTVDKSRWQQGNVFSCSVMHEALHNHYTQKSLSLSPGK
light: EIVLTQSPGTLSLSPGERATLSCRASQSVSSSFFAWYQQKPGQAPRLLIYGASSRATGIPDRLSGSGSGTDFTLTITRLEPEDFAVYYCQQYDSSAITFGQGTRLEIKRTVAAPSVFIFPPSDEQLKSGTASVVCLLNNFYPREAKVQWKVDNALQSGNSQESVTEQDSKDSTYSLSSTLTLSKADYEKHKVYACEVTHQGLSSPVTKSFNRGECGGGGSGGGGSMLQMAGQCSQNEYFDSLLHACIPCQLRCSSNTPPLTCQRYCSTSCREEQGEFYDHLLRDCISCASICGQHPKQCAAFCE
notes: Fusion protein of anifrolumab, TACI-19-16 and BCMA-ECD-2 (C-terminus of the light chain)
B2: B606401 (other)
heavy: B1 heavy
light: EIVLTQSPGTLSLSPGERATLSCRASQSVSSSFFAWYQQKPGQAPRLLIYGASSRATGIPDRLSGSGSGTDFTLTITRLEPEDFAVYYCQQYDSSAITFGQGTRLEIKRTVAAPSVFIFPPSDEQLKSGTASVVCLLNNFYPREAKVQWKVDNALQSGNSQESVTEQDSKDSTYSLSSTLTLSKADYEKHKVYACEVTHQGLSSPVTKSFNRGECGGGGSGGGGSSTSCREEQGEFYDHLLRDCISCASICGQHPKQCAAFCE
notes: Fusion protein of anifrolumab and TACI-19-16 (C-terminus of the light chain)

Tests used:
[1] = biological target: T1, recombinant human BAFF (R&D cat: 7537-BF-025/CF) (human, UniProt Q9Y275 134-285); experiment: cell-based or functional assay
T1 sequence (Q9Y275 134-285 limits assumed): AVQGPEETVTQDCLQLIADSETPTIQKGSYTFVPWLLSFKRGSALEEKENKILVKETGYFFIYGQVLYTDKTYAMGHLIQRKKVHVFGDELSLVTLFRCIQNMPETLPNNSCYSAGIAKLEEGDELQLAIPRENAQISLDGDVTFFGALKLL

IFNAR1 [2] = biological target: T2, IFNAR1 (human, UniProt P17181 28-557); experiment: cell-based or functional assay
T2 sequence (looked up): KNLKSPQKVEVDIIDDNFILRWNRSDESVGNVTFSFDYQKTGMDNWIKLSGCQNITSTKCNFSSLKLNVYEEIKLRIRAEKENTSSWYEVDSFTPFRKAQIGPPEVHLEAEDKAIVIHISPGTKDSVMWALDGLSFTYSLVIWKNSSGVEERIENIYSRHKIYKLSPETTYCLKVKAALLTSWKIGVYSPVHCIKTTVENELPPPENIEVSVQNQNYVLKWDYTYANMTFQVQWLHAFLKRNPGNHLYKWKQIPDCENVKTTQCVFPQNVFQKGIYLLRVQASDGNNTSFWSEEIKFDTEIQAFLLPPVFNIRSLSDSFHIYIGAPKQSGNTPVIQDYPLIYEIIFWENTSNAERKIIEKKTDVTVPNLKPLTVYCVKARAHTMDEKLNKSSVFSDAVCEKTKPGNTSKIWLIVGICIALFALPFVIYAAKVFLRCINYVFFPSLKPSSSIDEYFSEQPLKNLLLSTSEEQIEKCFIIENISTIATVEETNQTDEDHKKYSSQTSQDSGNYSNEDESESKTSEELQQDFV

[3] = biological target: T3, recombinant human APRIL (R&D cat: 5860-AP-010/CF) (human, UniProt O75888 105-250, limits assumed); experiment: cell-based or functional assay
T3 sequence (looked up): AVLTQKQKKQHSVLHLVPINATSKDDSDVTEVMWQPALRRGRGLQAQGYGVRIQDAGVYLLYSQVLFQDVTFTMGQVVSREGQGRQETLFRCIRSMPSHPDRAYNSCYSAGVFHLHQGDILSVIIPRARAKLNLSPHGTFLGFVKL

[4] = biological target: T3, recombinant human APRIL (R&D cat: …); experiment: cell-based or functional assay; remark: listed apart in the source
[5] = biological target: T1, recombinant human BAFF (R&D cat: …); experiment: cell-based or functional assay; remark: listed apart in the source
[6] = biological target: T4, APRIL (Acro Biosystems, Cat: APL-H52D1) (UniProt O75888 115-250, limits assumed); experiment: ELISA, APRIL coated at 1 ug/mL, anti-human Fc-HRP, OD450
T4 construct: also called ARPIL
T4 sequence (looked up): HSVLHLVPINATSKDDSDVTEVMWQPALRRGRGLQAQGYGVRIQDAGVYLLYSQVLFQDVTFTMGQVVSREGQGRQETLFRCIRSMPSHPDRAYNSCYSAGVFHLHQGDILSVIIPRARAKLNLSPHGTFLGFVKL
Description: The capabilities of fusion proteins B606401, B637302, B746201, and B805201 to bind to BAFF and APRIL were assessed by ELISA as follows:
BAFF (PeproTech, Cat: 310-13) or ARPIL (Acro Biosystems, Cat: APL-H52D1) was diluted to 1 μg/mL with PBS, and a 96-well plate was coated with the dilution overnight at 4° C. The plate was washed with PBST and blocked with Blocking Buffer (PBST containing 1% BSA) at 37° C. for 1 h. The plate was tapped. The test antibodies were diluted with Blocking Buffer. Incubation was performed at 37° C. for 1.5 h. The plate was washed with PBST. An HRP-mouse anti-human Fc antibody (GenScript, Cat: A01854-200) was diluted with Blocking Buffer. Incubation was performed at 37° C. for 40 min. The plate was washed with PBST. 100 μL of TMB substrate solution (Biopanda, Cat: TMB-S-003) was added, and color development was performed at 37° C. for 3 min. 100 μL of ELISA stop solution (Solarbio, Cat: C1058) was added. OD450 was measured.

IFNAR1 [7] = biological target: T2, IFNAR1; experiment: cell-based or functional assay; remark: listed apart in the source

Binder	Flow cytometry proliferating B cell proportion (%), mean value, BAFF-induced, drug at 10 nM (IgG1: 40.15) [1] [%]	Flow cytometry proliferating B cell proportion (%), mean value, BAFF-induced, drug at 100 nM (IgG1: 40.60) [1] [%]	Flow cytometry proliferating B cell proportion (%), mean value, BAFF-induced, drug at 1000 nM (IgG1: 33.97) [1] [%]	IC50, inhibition of IFN-alpha-induced in vitro differentiation of B cells into plasma cells (CD27+ CD38+) (IFNAR1 [2]) [nM]	Flow cytometry proliferating B cell proportion (%), mean value, APRIL-induced, drug at 4.12 nM (IgG1: 55.30) [3] [%]	Flow cytometry proliferating B cell proportion (%), mean value, APRIL-induced, drug at 12.35 nM (IgG1: 54.80) [3] [%]	Flow cytometry proliferating B cell proportion (%), mean value, APRIL-induced, drug at 37.04 nM (IgG1: 56.63) [3] [%]	Flow cytometry proliferating B cell proportion (%), mean value, APRIL-induced, drug at 111.11 nM (IgG1: 55.83) [3] [%]	Flow cytometry proliferating B cell proportion (%), mean value, APRIL-induced, drug at 333.33 nM (IgG1: 56.27) [3] [%]	Flow cytometry proliferating B cell proportion (%), mean value, APRIL-induced, drug at 1000.00 nM (IgG1: 53.27) [3] [%]	CD27+ CD38+ plasma cell count, mean value, BAFF + APRIL-induced (both ligands together), drug at 10 nM (IgG1: 2687) [4] [cells]	CD27+ CD38+ plasma cell count, mean value, BAFF + APRIL-induced (both ligands together), drug at 100 nM (IgG1: 2496) [4] [cells]	CD27+ CD38+ plasma cell count, mean value, BAFF + APRIL-induced (both ligands together), drug at 1000 nM (IgG1: 2279) [4] [cells]	CD27+ CD38+ plasma cell count, mean value, BAFF + APRIL-induced (both ligands together), drug at 100 nM (IgG1: 2496) [5] [cells]	CD27+ CD38+ plasma cell count, mean value, BAFF + APRIL-induced (both ligands together), drug at 1000 nM (IgG1: 2279) [5] [cells]	EC50 [6] [nM]	Emax [6]	IC50 (nM), inhibition of the activity of type I interferons (IFN-beta, HEK-Blue IFN-alpha/beta reporter cells) (IFNAR1 [7]) [nM]
B1	23.8	22.2	10.9	10.8	50.6	50.7	53.6	51.5	48	33.6	563	482	137	482	137	0.0819	2.9	1.59
B2	28.1	25.3	17.9	17.4	52	52.9	53.6	53.1	50.6	40.3	654	549	426	549	426	0.607	2.81	1.94
